Test results reported in patent US7741110.

Key:
[1] = target: VP64-C7-ER (Zif268 variant C7 + mER LBD G525R) (synthetic) (UniProt P08046); assay: cell_activity; conditions: HeLa luciferase, 4-OHT-induced
[2] = target: VP64-C7-PR (Zif268 variant C7 + hPR LBD aa645-914) (synthetic) (UniProt P08046); assay: cell_activity; conditions: HeLa luciferase, RU486-induced
[3] = target: VP16-C7-ER (synthetic) (UniProt P08046); assay: cell_activity; conditions: 4-OHT-induced, HeLa; no response to RU486
[4] = target: VP16-C7-PR (synthetic) (UniProt P08046); assay: cell_activity; conditions: RU486-induced, HeLa; no response to 4-OHT
[5] = system: B3 three-finger zinc finger protein (Sp1C framework, designed) (synthetic); assay: EMSA; conditions: Zn buffer (90 uM ZnCl2, 90 mM KCl, 1 mM MgCl2), 3 h room temperature
[6] = system: E2C-RE-VP64 (hRXRa + Drosophila EcR LBDs) (synthetic); assay: cell_activity; conditions: Ponasterone A-induced; significant basal activity

GAGGGTACCGCGTGGGCGAAAAAGCGTGGGCGAGTCGACTCTAGAGGGTATATAATGG (double strand) [C7 direct repeat, 3 bp spacer, TATA reporter]
activity [1]: 9.5 fold
activity [2]: 3.9 fold

GCGTGGGCG (double strand) [10xC7-TATA-luc]
activity [3]: 43 fold
activity [4]: 26 fold

GGAGGGGAC [B3 target site oligonucleotide]
Kd [5]: 0.015 µM

GGGGCCGGAGCCGCAGTG (double strand) [E2C-TATA-luc single E2C site]
activity [6]: 3 fold
